Consider 3 compounds from patent US20240131207A1, “NUCLIDE-LABELED INHIBITORY PEPTIDE, AND PREPARATION METHOD THEREFOR AND USE THEREOF” (SUZHOU UNIVERSITY, priority 2022, published 2024).

No end group written: not given here. *: point of attachment. DOTA = O=C(O)CN1CCN(CC(=O)O)CCN(CC(=O)*)CCN(CC(=O)O)CC1

In data set [1] the test system is B16F10 cells. Description: Growth inhibitory effect of 177Lu-AP1 on B16F10 cells (CCK8). The data set is classed as cell-based, mice. The conditions noted are these: radioactive dose 600 μCi/mL, incubated 24 hours, then 24 hours in normal medium.
Procedure: • (1) The B16F10 cells of mice in the logarithmic growth phase were taken and digested by using pancreatin, and the cell concentration was adjusted to 4×10^4 cells/mL; the cells were plated in a 96-well plate at a volume of 100 μL per well, the cell concentration was 4×10^3 cells per well, and the cells were incubated overnight in an incubator at 37° C./5% CO2; • (2) the medium was replaced for each group of cells, 100 μL of culture solution with a specified dosage was added, and ^177LuCl3 and ^177Lu-AP1 with the same dosage concentration were added into two 96-well plates, wherein dosage concentrations were 0, 10, 100, 200, 300, 400, 500 and 600 μCi/mL; after 24 h, the normal culture medium was used to continue culturing; • (3) a culture medium with 10 μL of CCK8 solution (10%) was added at 24 h and 48 h after the normal culture medium was used, and the culture was continued in the incubator for 1 h; • (4) after 1 h, the absorbance at 450 nm of each well was measured using a microplate reader. The relative survival rate of the cells was calculated according to the measured OD value. Cell viability=(material added group−blank group)/(control group−blank group)×100%.
Data set [2] has as its system B16F10 cells. The conditions noted are these: 0-100 μg/mL.
Procedure: (§1) • (1) The skin melanoma B16F10 cells of mice in the logarithmic growth phase were taken and digested by using 0.25% pancreatin, and the cell concentration was adjusted to 6×10^4/mL; the cells were plated in a 96-well plate at a volume of 100 μL per well, the cell concentration was 6×10^3 cells per well, and the cells were incubated overnight in an incubator at 37° C./5% CO2; • (2) the medium was replaced for each group of cells, and 100 μL of a culture solution with a specified concentration was added, wherein the concentration of each dose was 0, 0.5, 1, 5, 10, 20, 50 and 100 μg/mL; after 24 h, a DMEM medium (containing 10% of North American fetal bovine serum and 1% of double antibody) was used, and the culture was continued; • (3) 10 μL of CCK8 solution (10%) was added at 0 h and 24 h after the normal culture medium was used, and the culture was continued in the incubator for 1 h; • (4) after 1 h, the absorbance at 450 nm of each well was measured using a microplate reader. The relative survival rate of the cells was calculated according to the measured OD value. Cell viability=(material added group−blank group)/(control group−blank group)×100%.
Data set [3] can be described thus: in vitro. The following applies: mouse, B16F10 cells.
Procedure: as §1
For data set [4] the following is noted: mice, tail vein injection, two-compartment model.
Procedure: (§2) • (1) The ^68Ga-AP1 imaging probe was used for screening a high expression group and a low expression group of tumor ASF1a, and 20 μCi of ^68Ga-AP1 was injected into the tail vein of each mouse. After 0.5, 1.5, 3.5 and 5.5 h after injection, each important organ was dissected and separated. Each organ weight was measured and calculated as % ID/g=organ radioactivity count/(organ weight×source count)×100% for 3 mice per time point. • (2) Mice were sacrificed at 10 min, 20 min, 30 min, 1.5 h, 3.5 h, 5.5 h respectively after tail vein injection of ^68Ga-AP1, the radioactivity of the organs in the blood of the mice was measured, n=3 was measured at each time point, and the mean value of each time point was taken, and an intravascular two-compartment model was selected to fit hemodynamic parameters using PKSover software.
The test system of data set [5] is B16F10 cells. Description: Binding and inhibition assay of B16F10 cells to 68Ga-AP1. The data set is classed as cell-based, mice. The conditions noted are these: 0.11 MBq/mL 68Ga-AP1 with AP1 0-360 μg/mL, 1 h. The procedure:
• (1) When the cells grew to more than 90%, the cells were digested with 0.25% pancreatin, the cell concentration was adjusted to 1×10^5 cells/mL, the cells were plated in a 24-well plate, and 0.5 mL of culture medium was added to each well. […] 0.5 mL of 0.11 MBq/mL ^68Ga-AP1 was the source count T. • (5) The radioactivity of the liquid (^68Ga-AP1) detected and collected by the radioimmunotube of each concentration of AP1 was denoted as count B. • (6) The cellular uptake was B/T×100%, and the half inhibitory concentrations were fitted based on different concentrations of AP1. FIGS. 5A-5B show a competitive binding and inhibition experiment between ^68GaAP1 and AP1.

The subject of data set [6] is B16F10 cells.
Procedure: Safety of radiolabeled ^68Ga-AP1 imaging probe • (1) The B16F10 cells of mice in the logarithmic growth phase were taken and digested by using 0.25% pancreatin, and the cell concentration was adjusted to 6×10^4 cells/mL; the cells were plated in a 96-well plate at a volume of 100 μL per well, the cell concentration was 6×10^3 cells per well, and the cells were incubated overnight in an incubator at 37° C./5% CO2; • (2) the medium was replaced for each group of cells, 100 μL of a culture solution with a specified concentration was added, and the radioactive doses were taken as 0, 1, 2.5, 10, 25, 50, 100, and 200 μCi/mL; after 12 h, the normal culture medium was used and 10 μL of CCK8 solution (10%) was added, and the culture was continued in an incubator for 1 h; • (3) after 1 h, the absorbance at 450 nm of each well was measured using a microplate reader. The relative survival rate of the cells was calculated according to the measured OD value. Cell viability=(material added group−blank group)/(control group−blank group)×100%.
A short description of data set [7]: in vivo. The conditions noted are these: mouse, tumor, iv, 20 uCi per mouse, total radioactivity, after 5.5 hours, B16F10 tumor-bearing mouse.
Procedure: as §2
The conditions of data set [8]: B16F10 tumor-bearing mouse, tail vein injection.
Procedure: as §2
The nature of data set [9]: Stability analysis of 68Ga/177Lu labeled product in PBS by HPLC. The following applies: within 24 hours, stability data determined with 177Lu. It counts as physicochemical. The procedure: • (1) The HPLC mobile phases were water and acetonitrile (each containing 0.1% TFA), and the gradient was set from 20% to 50% acetonitrile concentration over a period of 30 minutes. • (2) The injection analysis of ^68Ga/^177Lu-AP1 in PBS at different time points (0, 1.5, 3.5, and 24 h) under the same condition is shown in FIG. 2 (identification and purification of ^68Ga/^177Lu-labeled AP1 product) (The radiation peak of the product is mainly the peak of the polypeptide. Since the half-life of ^68Ga is only 68 minutes, and the amount of radiation injected is very small, the stability data is determined by ^177Lu (6.71 days) with a longer half-life).

As for `[Cl][177Lu]([Cl])[Cl]` [^177LuCl3], the “cell survival rate after 24 hours” value in data set [1] amounted to 82.19±16.69%.

Turning to “{DOTA}-YGRKKRRQRRRCASTEEKWARLARRIAGAGGVTLDGFGGCA (cysteines drawn unpaired) [AP1]”, the “biocompatibility of the polypeptide” value in [2] was “good biocompatibility”. For the same compound, in [3], the viability (in general, a read-out of living cells in per cent, often relative to untreated cells) at 24 h, 100 µg/mL was found to be 94.7 ± 11% and the viability at 48 h, 100 µg/mL came out at 103 ± 5.76%.

For “{DOTA}-YGRKKRRQRRRCASTEEKWARLARRIAGAGGVTLDGFGGCA-OH (N-terminus assumed; cysteines drawn unpaired) [^68Ga-AP1, metal not drawn]”, in data set [4], the “half-discharge time in the blood” value was 2.1933 h and the “mean residence time (MRT) in vivo” value was determined as 3.1643 h. Also, the “uptake in B16F10 cells inhibited by AP1” value in data set [5] was “can be specifically uptaken”. In addition, in data set [6] (0-200 μCi/mL), the “biocompatibility of the PET/CT imaging probe” value is “good biocompatibility”. In addition, in data set [6] (radioactivity at most 200 μCi/mL), the cell survival rate is 95.31±9.05%. The tissue uptake (commonly the percentage of the injected dose found per gram of tissue) at 5.5 h in data set [7] (tumor % ID/g in tumor high-intake group, high-intake group) came to 18.9 ± 0.248 %ID/g. Also, the tissue uptake at 5.5 h in [7] (tumor % ID/g in tumor low-intake group, low-intake group) is 5.24 ± 1.73 %ID/g. Also, the “route of metabolism (in vivo biodistribution)” value in [8] was “mainly metabolized through liver and kidney”. Further, the “stability of the labeled product” value in data set [9] is recorded as “good stability”.
